Common to all, as to assay: non-reducing SDS-PAGE and western blot
A general note: In western blotting, separated proteins are transferred to a membrane and probed.

Test [1] has as its target transmembrane peptide of sDscamα (Mesobuthus martensii).
For test [2], the target named is transmembrane peptide of sDscamβ2 (Mesobuthus martensii).
For test [3], the target named is transmembrane peptide of sDscamβ3 (Mesobuthus martensii).
Test [4] deals with transmembrane peptide of sDscamβ4 (Mesobuthus martensii).
The target of test [5] is transmembrane peptide of sDscamβ5 (Mesobuthus martensii).
The target of test [6] is transmembrane peptide of sDscamβ6 (Mesobuthus martensii).

In general, stoichiometry N refers to the number of molecules, sites or subunits per partner or assembly.

Bounds are passed on as bounds.

In test [1], “transmembrane peptide of sDscamα (domain or fragment)” gave a stoichiometry N of 2. On to “transmembrane peptide of sDscamβ2 (domain or fragment)”, for which the stoichiometry N in test [2] stood at 2.

In the case of “transmembrane peptide of sDscamβ3 (domain or fragment)”, the stoichiometry N in test [3] came out at 2. In test [4], “transmembrane peptide of sDscamβ4 (domain or fragment)” had a percent of dimers of less than 10% and a stoichiometry N of 2. Take “transmembrane peptide of sDscamβ5 (domain or fragment)”: in test [5], the percent of dimers is less than 10% and the stoichiometry N was found to be 2.

In turn, “transmembrane peptide of sDscamβ6 (domain or fragment)” returned a stoichiometry N in test [6] of 2.

The record behind these values is article doi:10.1101/2019.12.15.877159.
